Experimental data taken from US20230227571A1 (University of Pennsylvania, published 2023).

Legend:
[1] = molecular target: T1, human C5 (purified human complement C5, Complement Technology #A120; also C5 in normal human serum) (human, UniProt P01031 19-673; P01031 678-1676); assay: direct ELISA, plate coated with purified human C5, serially diluted mAb
T1 construct: domain: β chain;domain: α chain; Purified plasma protein bought from Complement Technology; also called hC5
Text: Direct antigen binding ELISA in which mAbs are serially diluted across microtiter plates coated with purified human C5.

[2] = molecular target: T1, human C5 (purified human complement C5, …); assay: ELISA, plate coated with human C5, anti-human IgG4-HRP detection
Text: A plate was coated with human C5.

T1 sequence (P01031 19-673 limits assumed, chain 1 of 2): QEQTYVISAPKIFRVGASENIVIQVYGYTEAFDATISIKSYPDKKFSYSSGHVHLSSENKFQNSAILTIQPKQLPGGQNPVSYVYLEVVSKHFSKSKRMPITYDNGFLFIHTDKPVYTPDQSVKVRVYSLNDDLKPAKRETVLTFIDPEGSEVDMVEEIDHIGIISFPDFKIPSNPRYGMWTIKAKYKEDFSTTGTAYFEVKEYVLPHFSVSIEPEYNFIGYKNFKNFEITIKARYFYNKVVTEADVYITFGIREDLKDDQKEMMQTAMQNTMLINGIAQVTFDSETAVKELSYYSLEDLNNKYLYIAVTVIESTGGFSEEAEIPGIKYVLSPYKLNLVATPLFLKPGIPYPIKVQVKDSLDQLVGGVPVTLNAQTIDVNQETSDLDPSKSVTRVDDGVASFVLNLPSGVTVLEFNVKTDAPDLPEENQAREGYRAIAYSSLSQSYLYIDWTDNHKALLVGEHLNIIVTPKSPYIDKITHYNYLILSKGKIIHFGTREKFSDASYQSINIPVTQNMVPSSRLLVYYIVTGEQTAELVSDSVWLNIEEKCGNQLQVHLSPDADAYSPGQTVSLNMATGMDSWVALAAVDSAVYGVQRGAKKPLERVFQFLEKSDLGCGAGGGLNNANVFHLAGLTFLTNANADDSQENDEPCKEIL
T1 sequence (P01031 678-1676 limits assumed, chain 2 of 2): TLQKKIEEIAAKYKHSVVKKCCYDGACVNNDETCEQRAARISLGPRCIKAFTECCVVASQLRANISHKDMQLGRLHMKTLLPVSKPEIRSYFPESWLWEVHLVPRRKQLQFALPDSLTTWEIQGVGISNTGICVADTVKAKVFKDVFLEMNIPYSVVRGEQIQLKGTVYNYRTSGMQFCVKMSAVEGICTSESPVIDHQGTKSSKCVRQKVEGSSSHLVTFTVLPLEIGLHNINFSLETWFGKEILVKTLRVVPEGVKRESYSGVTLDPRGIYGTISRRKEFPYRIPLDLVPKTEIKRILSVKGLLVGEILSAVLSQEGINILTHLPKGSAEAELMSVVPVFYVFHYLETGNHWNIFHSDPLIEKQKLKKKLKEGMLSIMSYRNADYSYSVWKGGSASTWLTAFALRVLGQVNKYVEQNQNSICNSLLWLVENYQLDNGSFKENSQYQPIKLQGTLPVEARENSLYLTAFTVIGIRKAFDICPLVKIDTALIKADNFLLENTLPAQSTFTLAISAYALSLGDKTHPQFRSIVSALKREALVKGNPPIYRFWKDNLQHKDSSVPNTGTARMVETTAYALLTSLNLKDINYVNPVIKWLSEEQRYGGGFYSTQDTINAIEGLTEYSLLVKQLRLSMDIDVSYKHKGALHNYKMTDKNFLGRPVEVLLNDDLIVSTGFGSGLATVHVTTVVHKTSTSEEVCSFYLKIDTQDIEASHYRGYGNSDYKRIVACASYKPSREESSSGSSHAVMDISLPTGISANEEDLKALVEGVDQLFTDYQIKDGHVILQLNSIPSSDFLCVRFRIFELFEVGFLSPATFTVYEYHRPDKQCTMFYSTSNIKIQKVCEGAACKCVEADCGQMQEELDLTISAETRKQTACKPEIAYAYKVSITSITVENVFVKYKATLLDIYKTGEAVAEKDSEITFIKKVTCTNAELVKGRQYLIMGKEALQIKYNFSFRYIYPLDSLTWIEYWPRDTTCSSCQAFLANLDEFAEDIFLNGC

B1: anti-human C5 mAb 9G6 (antibody, V domains shown)
VH: QIQLVQSGPELKKPGETVKISCKASGYTFTEYPMHWVKQAPGKSFKWMGILYTDTGEPTYAEEFRGRFAFSLETSASTAYLQINNLKNEDTATYFCVHSGYVGYWGQGTTLTVSS
VL: DIQMTQSPASLSASVGETVTFTCRASEIIYSYLVWYQQKQGKSPQLLVSNAKTLAEGVPSRFSGSGSGTQFSLKINSLQPEDFGSYYCQHYYGNPPTFGGGTKLEIKR
notes: Murine hybridoma mAb; entries may include the leader peptide
binding result [1]: binds

B2: anti-human C5 mAb 11C5 (antibody, V domains shown)
VH: EVQLVESGGGLVKPGGSLKLSCAASGFTFTTYAMSWVRQTPEKRLEWVATISAGGTYTYYSDNVKGRFTISRDNAKNNLYLQMSHLKSEDTAMFYCARDPDYYGRSPFAYWGQGTLVTVSA
VL: EIVLTQSPATLSVTPGESVSLSCRASQSISNNLQWYQQKSHESPRLLIKYASQSISGIPSRFSGSGSGTDFTLSINSVETEDFGMYFCQQSNSWPLTFGGGTKVELKR
notes: as for B1
binding result [1]: binds

B3: anti-human C5 mAb 8E1 (antibody, V domains shown)
VH: QVQLKESGPGLVAPSQSLSITCTVSGFPLNNYGIHWVRQPPGKGLEWLAVIWSDGRTTYNSALNSRLSISKDNSKSQVFFKMNSLQTDDTAMYYCARHDGRGDYSMDYWGQGTSVTVSS
VL: ELVMTQSPASLVVSLGQRATISCRASKGVSTSVYSYMHWYQQKPGQPPKLLIYLASNLESGVPARFSGSGSGTDFSLNIHPVEEEDAATYYCQQSGELPLTFGAGTKLELKR
notes: as for B1
binding result [1]: binds

B4: humanized 2G1 (VH-11801/VL-1901) (antibody, V domains shown)
VH: QVQLVQSGAEVKKPGASVKVSCKASGYTITDYNLDWVRQAPGQGLEWMGDISPNYGYTIYNQKFKDRVTMTTDTSTSTAYMELRSLRSDDTAVYYCARRDIRYSGNSYKWYFDVWGQGTMVTVSS
VL: DIQLTQSPSFLSASVGDRVTITCRTSKSISKYLAWYQQKPGKAPKLLIYSGSTLQSGVPSRFSGSGSGTEFTLTISSLQPEDFATYYCQQHNEYPYTFGQGTKLEIKT
notes: Human IgG4 mAb with S228P, expressed in CHO cells
binding result [2]: binds

B5: humanized 2G1 (VH-16901/VL-1901) (antibody, V domains shown)
VH: QVQLVQSGAEVKKPGSSVKVSCKASGYTITDYNLDWVRQAPGQGLEWMGDISPNYGYTIYNQKFKDRVTITADESTSTAYMELSSLRSEDTAVYYCARRDIRYSGNSYKWYFDVWGQGTMVTVSS
VL: DIQLTQSPSFLSASVGDRVTITCRTSKSISKYLAWYQQKPGKAPKLLIYSGSTLQSGVPSRFSGSGSGTEFTLTISSLQPEDFATYYCQQHNEYPYTFGQGTKLEIKT
notes: as for B4
binding result [2]: binds
